Test results from US20250268980A1, “AN ANTICANCER THERAPY TARGETING RAS AND OTHER ONCOGENIC SIGNALS BY INHIBITION OF DYNAMIC BLEBBING AND/OR SEPTINS” (THE BOARD OF REGENTS OF THE UNIVERSITY OF TEXAS SYSTEM, priority 2022, published 2025).

Tests used:
SEPTIN10 (human) [1] = target: SEPTIN10 (human) (UniProt Q9P0V9); assay: HaloLink pulldown from MV3 cells, LC-MS/MS
SEPTIN2 (human) [2] = target: SEPTIN2 (human) (UniProt Q15019); assay: HaloLink pulldown from MV3 cells, LC-MS/MS
SEPTIN7 (human) [3] = target: SEPTIN7 (human) (UniProt Q16181); assay: HaloLink pulldown from MV3 cells, LC-MS/MS
Sequence of SEPTIN7 (human) (Q16181 2-437 limits assumed): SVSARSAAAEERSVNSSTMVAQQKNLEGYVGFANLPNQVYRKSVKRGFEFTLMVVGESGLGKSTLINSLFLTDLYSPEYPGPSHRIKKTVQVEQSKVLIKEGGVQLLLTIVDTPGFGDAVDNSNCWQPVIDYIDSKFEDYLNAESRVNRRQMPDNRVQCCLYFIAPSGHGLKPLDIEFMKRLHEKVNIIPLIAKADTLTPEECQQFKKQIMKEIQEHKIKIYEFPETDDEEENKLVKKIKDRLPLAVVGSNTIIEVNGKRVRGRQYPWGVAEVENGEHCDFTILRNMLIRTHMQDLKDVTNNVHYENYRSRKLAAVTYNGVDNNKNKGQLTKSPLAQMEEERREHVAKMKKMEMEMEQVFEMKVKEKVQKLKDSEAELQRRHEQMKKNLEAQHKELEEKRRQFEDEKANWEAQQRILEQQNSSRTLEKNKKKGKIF

SEPTIN11 (human) [4] = target: SEPTIN11 (human) (UniProt Q9NVA2); assay: HaloLink pulldown from MV3 cells, LC-MS/MS
Sequence of SEPTIN11 (human) (Q9NVA2 2-429 limits assumed): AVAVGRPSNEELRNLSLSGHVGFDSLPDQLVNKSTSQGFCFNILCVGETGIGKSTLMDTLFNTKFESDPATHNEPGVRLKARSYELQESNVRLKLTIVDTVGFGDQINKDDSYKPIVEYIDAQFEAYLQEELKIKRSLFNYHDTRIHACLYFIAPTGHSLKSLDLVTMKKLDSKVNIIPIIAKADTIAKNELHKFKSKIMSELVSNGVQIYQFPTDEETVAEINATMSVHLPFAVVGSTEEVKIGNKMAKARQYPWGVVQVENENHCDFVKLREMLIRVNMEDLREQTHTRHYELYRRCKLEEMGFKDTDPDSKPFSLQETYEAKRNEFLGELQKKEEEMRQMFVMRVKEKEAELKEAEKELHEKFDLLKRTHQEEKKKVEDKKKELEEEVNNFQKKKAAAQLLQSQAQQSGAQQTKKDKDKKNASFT

SEPTIN9 (human) [5] = target: SEPTIN9 (human) (UniProt Q9UHD8); assay: HaloLink pulldown from MV3 cells, LC-MS/MS
Sequence of SEPTIN9 (human) (Q9UHD8 whole entry): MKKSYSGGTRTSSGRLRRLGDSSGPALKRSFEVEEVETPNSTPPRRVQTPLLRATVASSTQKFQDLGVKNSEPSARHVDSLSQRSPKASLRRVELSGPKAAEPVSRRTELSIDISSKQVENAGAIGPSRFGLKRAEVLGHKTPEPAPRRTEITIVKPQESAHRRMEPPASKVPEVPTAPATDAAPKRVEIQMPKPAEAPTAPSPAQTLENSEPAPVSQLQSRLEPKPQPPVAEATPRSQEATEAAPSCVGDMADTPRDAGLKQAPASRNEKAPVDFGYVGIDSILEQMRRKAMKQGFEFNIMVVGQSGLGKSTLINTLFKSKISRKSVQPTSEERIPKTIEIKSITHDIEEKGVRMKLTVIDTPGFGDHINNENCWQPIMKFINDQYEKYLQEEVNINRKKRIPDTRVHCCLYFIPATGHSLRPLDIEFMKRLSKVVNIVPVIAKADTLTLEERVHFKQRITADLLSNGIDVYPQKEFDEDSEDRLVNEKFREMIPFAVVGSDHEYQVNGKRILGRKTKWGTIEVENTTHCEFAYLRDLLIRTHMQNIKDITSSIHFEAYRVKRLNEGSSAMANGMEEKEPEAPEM

SEPTIN6 (human) [6] = target: SEPTIN6 (human) (UniProt Q14141); assay: HaloLink pulldown from MV3 cells, LC-MS/MS
Sequence of SEPTIN6 (human) (Q14141 2-434 limits assumed): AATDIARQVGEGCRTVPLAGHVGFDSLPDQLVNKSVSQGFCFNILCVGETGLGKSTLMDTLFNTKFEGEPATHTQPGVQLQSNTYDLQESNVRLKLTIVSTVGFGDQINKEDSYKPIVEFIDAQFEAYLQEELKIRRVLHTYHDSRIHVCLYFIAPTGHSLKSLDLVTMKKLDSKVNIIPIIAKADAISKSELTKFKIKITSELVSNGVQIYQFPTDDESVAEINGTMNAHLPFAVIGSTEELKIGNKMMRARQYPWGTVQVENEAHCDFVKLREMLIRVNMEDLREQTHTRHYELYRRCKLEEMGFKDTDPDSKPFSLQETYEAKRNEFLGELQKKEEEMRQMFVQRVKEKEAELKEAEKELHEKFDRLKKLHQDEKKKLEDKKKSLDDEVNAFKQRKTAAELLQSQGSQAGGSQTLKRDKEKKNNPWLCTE

SEPTIN8 (human) [7] = target: SEPTIN8 (human) (UniProt Q92599); assay: HaloLink pulldown from MV3 cells, LC-MS/MS
Sequence of SEPTIN8 (human) (Q92599 2-483 limits assumed): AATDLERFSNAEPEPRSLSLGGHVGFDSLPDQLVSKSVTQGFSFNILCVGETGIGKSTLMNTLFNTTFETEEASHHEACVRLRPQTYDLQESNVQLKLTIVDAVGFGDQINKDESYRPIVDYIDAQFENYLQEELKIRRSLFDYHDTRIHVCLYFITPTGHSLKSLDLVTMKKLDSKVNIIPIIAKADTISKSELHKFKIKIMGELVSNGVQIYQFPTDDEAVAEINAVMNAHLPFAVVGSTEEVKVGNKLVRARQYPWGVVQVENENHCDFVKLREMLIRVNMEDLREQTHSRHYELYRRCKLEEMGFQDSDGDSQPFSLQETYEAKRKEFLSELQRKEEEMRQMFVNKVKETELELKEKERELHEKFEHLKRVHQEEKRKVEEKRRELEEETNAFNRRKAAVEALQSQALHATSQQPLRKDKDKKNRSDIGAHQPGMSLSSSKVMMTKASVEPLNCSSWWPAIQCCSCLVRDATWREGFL

SEPTIN10 (human) [8] = target: SEPTIN10 (human) (UniProt Q9P0V9); assay: HaloLink pulldown from unperturbed A375 cells, LC-MS/MS
SEPTIN2 (human) [9] = target: SEPTIN2 (human) (UniProt Q15019); assay: as above
SEPTIN7 (human) [10] = target: SEPTIN7 (human) (UniProt Q16181); assay: as above
SEPTIN11 (human) [11] = target: SEPTIN11 (human) (UniProt Q9NVA2); assay: as above
SEPTIN9 (human) [12] = target: SEPTIN9 (human) (UniProt Q9UHD8); assay: as above
SEPTIN6 (human) [13] = target: SEPTIN6 (human) (UniProt Q14141); assay: as above
SEPTIN8 (human) [14] = target: SEPTIN8 (human) (UniProt Q92599); assay: as above

Sequence of SEPTIN2 (human) (Q15019 whole entry): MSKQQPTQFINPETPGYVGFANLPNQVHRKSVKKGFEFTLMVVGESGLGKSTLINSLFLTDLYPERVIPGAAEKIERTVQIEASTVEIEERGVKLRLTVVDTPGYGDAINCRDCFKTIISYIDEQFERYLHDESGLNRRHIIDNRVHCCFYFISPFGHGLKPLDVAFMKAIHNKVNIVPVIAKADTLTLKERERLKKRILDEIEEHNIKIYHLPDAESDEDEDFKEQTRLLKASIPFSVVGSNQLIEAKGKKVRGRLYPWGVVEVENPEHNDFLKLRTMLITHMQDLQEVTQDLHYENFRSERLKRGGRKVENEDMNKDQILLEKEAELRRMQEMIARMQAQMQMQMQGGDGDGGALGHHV
Sequence of SEPTIN10 (human) (Q9P0V9 whole entry): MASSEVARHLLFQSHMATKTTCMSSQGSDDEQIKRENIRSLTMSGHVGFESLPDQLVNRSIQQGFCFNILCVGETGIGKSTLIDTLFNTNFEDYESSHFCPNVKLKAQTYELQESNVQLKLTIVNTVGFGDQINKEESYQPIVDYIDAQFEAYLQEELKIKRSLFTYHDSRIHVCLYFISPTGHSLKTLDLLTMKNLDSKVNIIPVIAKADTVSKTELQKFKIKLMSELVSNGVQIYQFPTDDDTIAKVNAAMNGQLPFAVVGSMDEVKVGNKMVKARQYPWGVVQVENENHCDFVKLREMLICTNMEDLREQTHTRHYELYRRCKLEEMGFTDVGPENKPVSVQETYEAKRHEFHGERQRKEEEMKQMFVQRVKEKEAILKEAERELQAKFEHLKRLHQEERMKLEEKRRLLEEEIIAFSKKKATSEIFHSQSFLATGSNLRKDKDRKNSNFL

% of total protein abundance (SEPTIN10 (human) [1]): 0.28%
% of total septin abundance (SEPTIN10 (human) [1]): 3.19%
fold change between lysate and pulldown (% of total protein abundance) (SEPTIN10 (human) [1]): 7 fold
fold change between lysate and pulldown (% of total septin abundance) (SEPTIN10 (human) [1]): -5.32 fold
% of total protein abundance (SEPTIN2 (human) [2]): 2.43%
% of total septin abundance (SEPTIN2 (human) [2]): 30.1%
fold change between lysate and pulldown (% of total protein abundance) (SEPTIN2 (human) [2]): 60.8 fold
fold change between lysate and pulldown (% of total septin abundance) (SEPTIN2 (human) [2]): 1.5 fold
% of total protein abundance (SEPTIN7 (human) [3]): 2.41%
% of total septin abundance (SEPTIN7 (human) [3]): 29.9%
fold change between lysate and pulldown (% of total protein abundance) (SEPTIN7 (human) [3]): 120 fold
fold change between lysate and pulldown (% of total septin abundance) (SEPTIN7 (human) [3]): 3.39 fold
% of total protein abundance (SEPTIN11 (human) [4]): 0.08%
% of total septin abundance (SEPTIN11 (human) [4]): 0.94%
% of total protein abundance (SEPTIN9 (human) [5]): 1.85%
% of total septin abundance (SEPTIN9 (human) [5]): 23%
fold change between lysate and pulldown (% of total protein abundance) (SEPTIN9 (human) [5]): 61.7 fold
fold change between lysate and pulldown (% of total septin abundance) (SEPTIN9 (human) [5]): 1.78 fold
% of total protein abundance (SEPTIN6 (human) [6]): 1.03%
% of total septin abundance (SEPTIN6 (human) [6]): 12.8%
fold change between lysate and pulldown (% of total protein abundance) (SEPTIN6 (human) [6]): 11.4 fold
fold change between lysate and pulldown (% of total septin abundance) (SEPTIN6 (human) [6]): -3.2 fold
% of total protein abundance (SEPTIN8 (human) [7]): < 0.01%
% of total septin abundance (SEPTIN8 (human) [7]): 0.09%
fold change between lysate and pulldown (% of total septin abundance) (SEPTIN8 (human) [7]): -3.44 fold
% of total protein abundance (SEPTIN10 (human) [8]): 0.51%
% of total septin abundance (SEPTIN10 (human) [8]): 7.23%
fold change between lysate and pulldown (% of total septin abundance) (SEPTIN10 (human) [8]): 3.77 fold
% of total protein abundance (SEPTIN2 (human) [9]): 1.81%
% of total septin abundance (SEPTIN2 (human) [9]): 25.7%
fold change between lysate and pulldown (% of total protein abundance) (SEPTIN2 (human) [9]): 60.3 fold
fold change between lysate and pulldown (% of total septin abundance) (SEPTIN2 (human) [9]): -1.03 fold
% of total protein abundance (SEPTIN7 (human) [10]): 1.48%
% of total septin abundance (SEPTIN7 (human) [10]): 21.1%
fold change between lysate and pulldown (% of total protein abundance) (SEPTIN7 (human) [10]): 74 fold
fold change between lysate and pulldown (% of total septin abundance) (SEPTIN7 (human) [10]): 1.35 fold
% of total protein abundance (SEPTIN11 (human) [11]): < 0.01%
% of total septin abundance (SEPTIN11 (human) [11]): 0.12%
fold change between lysate and pulldown (% of total septin abundance) (SEPTIN11 (human) [11]): -44.7 fold
% of total protein abundance (SEPTIN9 (human) [12]): 1.55%
% of total septin abundance (SEPTIN9 (human) [12]): 22.1%
fold change between lysate and pulldown (% of total protein abundance) (SEPTIN9 (human) [12]): 77.5 fold
fold change between lysate and pulldown (% of total septin abundance) (SEPTIN9 (human) [12]): 1.62 fold
% of total protein abundance (SEPTIN6 (human) [13]): 1.67%
% of total septin abundance (SEPTIN6 (human) [13]): 23.8%
fold change between lysate and pulldown (% of total protein abundance) (SEPTIN6 (human) [13]): 55.7 fold
fold change between lysate and pulldown (% of total septin abundance) (SEPTIN6 (human) [13]): -1.33 fold
% of total protein abundance (SEPTIN8 (human) [14]): < 0.01%
% of total septin abundance (SEPTIN8 (human) [14]): 0.02%
Substance: mouse SEPT6-HALO (from UniProt Q9R1T4 2-434)
